Assay results reported in PMC11065315.

Legend:
[1] = target: phosphorylated eIFiso4F in complex with eIF4B and poly(A)-binding protein (wheat) (UniProt Q9AUJ7); assay: other fluorescence titration; Van't Hoff plot (ln Keq against 1/T) of the fluorescence titrations at 5, 10, 15, 20 and 25°C
[2] = target: phosphorylated eIFiso4F in complex with eIF4B (wheat) (UniProt Q9AUJ7); assay: as above
[3] = target: phosphorylated eIFiso4F (wheat eIFiso4Ep and eIFiso4Gp, phosphorylated in vitro by casein kinase 2) (wheat); assay: as above
[4] = target: phosphorylated eIFiso4F in complex with poly(A)-binding protein (wheat); assay: as above
[5] = target: eIFiso4F (unphosphorylated; wheat eIFiso4E and eIFiso4G) (wheat)
[6] = target: phosphorylated eIFiso4F (wheat eIFiso4Ep and eIFiso4Gp, phosphorylated in vitro by casein kinase 2) (wheat)
[7] = target: phosphorylated eIFiso4F in complex with eIF4B and poly(A)-binding protein (wheat) (UniProt Q9AUJ7); assay: other fluorescence titration; 10°C; quenching of the intrinsic fluorescence of the eIFs by increasing VPg; 20 mM HEPES/KOH pH 7.6, 100 mM NaCl, 1 mM MgCl2, 1 mM DTT
[8] = target: phosphorylated eIFiso4F in complex with eIF4B (wheat) (UniProt Q9AUJ7); assay: as above
[9] = target: phosphorylated eIFiso4F (wheat eIFiso4Ep and eIFiso4Gp, phosphorylated in vitro by casein kinase 2) (wheat); assay: as above
[10] = target: phosphorylated eIFiso4F in complex with poly(A)-binding protein (wheat); assay: as above
[11] = target: phosphorylated eIFiso4F in complex with eIF4B and poly(A)-binding protein (wheat) (UniProt Q9AUJ7); assay: other fluorescence titration; 25°C; quenching of the intrinsic fluorescence of the eIFs (excitation 280 nm, emission 334 nm) by increasing VPg; 100 nM eIFs or BSA (results; 500 nM in the methods); 20 mM HEPES/KOH pH 7.6, 100 mM NaCl, 1 mM MgCl2, 1 mM DTT; complexes pre-formed for 15 min
[12] = target: phosphorylated eIFiso4F in complex with eIF4B (wheat) (UniProt Q9AUJ7); assay: as above
[13] = target: phosphorylated eIFiso4F (wheat eIFiso4Ep and eIFiso4Gp, phosphorylated in vitro by casein kinase 2) (wheat); assay: as above
[14] = target: phosphorylated eIFiso4F in complex with poly(A)-binding protein (wheat); assay: as above
[15] = target: phosphorylated eIFiso4F in complex with eIF4B and poly(A)-binding protein (wheat) (UniProt Q9AUJ7); assay: other fluorescence titration; 5°C; quenching of the intrinsic fluorescence of the eIFs by increasing VPg; 20 mM HEPES/KOH pH 7.6, 100 mM NaCl, 1 mM MgCl2, 1 mM DTT
[16] = target: phosphorylated eIFiso4F in complex with eIF4B (wheat) (UniProt Q9AUJ7); assay: as above
[17] = target: phosphorylated eIFiso4F (wheat eIFiso4Ep and eIFiso4Gp, phosphorylated in vitro by casein kinase 2) (wheat); assay: as above
[18] = target: phosphorylated eIFiso4F in complex with poly(A)-binding protein (wheat); assay: as above
[19] = target: phosphorylated eIFiso4F in complex with eIF4B and poly(A)-binding protein (wheat) (UniProt Q9AUJ7); assay: other fluorescence titration; 15°C; quenching of the intrinsic fluorescence of the eIFs by increasing VPg; 20 mM HEPES/KOH pH 7.6, 100 mM NaCl, 1 mM MgCl2, 1 mM DTT
[20] = target: phosphorylated eIFiso4F in complex with eIF4B (wheat) (UniProt Q9AUJ7); assay: as above
[21] = target: phosphorylated eIFiso4F (wheat eIFiso4Ep and eIFiso4Gp, phosphorylated in vitro by casein kinase 2) (wheat); assay: as above
[22] = target: phosphorylated eIFiso4F in complex with poly(A)-binding protein (wheat); assay: as above
[23] = target: phosphorylated eIFiso4F in complex with eIF4B and poly(A)-binding protein (wheat) (UniProt Q9AUJ7); assay: other fluorescence titration; 20°C; quenching of the intrinsic fluorescence of the eIFs by increasing VPg; 20 mM HEPES/KOH pH 7.6, 100 mM NaCl, 1 mM MgCl2, 1 mM DTT
[24] = target: phosphorylated eIFiso4F in complex with eIF4B (wheat) (UniProt Q9AUJ7); assay: as above
[25] = target: phosphorylated eIFiso4F (wheat eIFiso4Ep and eIFiso4Gp, phosphorylated in vitro by casein kinase 2) (wheat); assay: as above
[26] = target: phosphorylated eIFiso4F in complex with poly(A)-binding protein (wheat); assay: as above

“viral protein genome-linked (VPg) of turnip mosaic virus (natural protein)” was tested, and the dH [1] was -53.7 kJ/mol, the dH [2] was -35.4 kJ/mol and the dH [3] was -33.4 kJ/mol. The dH [4] was -48.9 kJ/mol, the luciferase translation of uncapped TEV mRNA in eIF4F/eIFiso4F/eIF4B/PABP-depleted WGE with 20 nM VPg, escalating PABP up to 200 nM against no PABP [5] was 3 fold and the luciferase translation of capped TEV-luc-A50 mRNA in depleted WGE supplemented with eIFiso4Fp, with against without 20 nM VPg [6] was 2.5 fold. It also gave a luciferase translation of uncapped TEV-luc-A50 mRNA in depleted WGE supplemented with eIFiso4Fp, with against without 20 nM VPg [6] of 5 fold, a luciferase translation of uncapped TEV-luc-A50 mRNA in depleted WGE with eIFiso4Fp and VPg, with against without added PABP [6] of 2 fold and a Kd [7] of 12 nM. It also gave a Kd [8] of 19.1 nM, a Kd [9] of 21 nM and a Kd [10] of 14 nM. The Kd [11] was 24 nM, the Kd [12] was 34.1 nM and the Kd [13] was 41 nM. For the same substance, the Kd [14] was 32 nM, the Kd [15] was 8.6 nM and the Kd [16] was 15 nM. The Kd [17] was 17.1 nM, the Kd [18] was 10.3 nM and the Kd [19] was 16.1 nM. For the same substance, the Kd [20] was 24 nM, the Kd [21] was 26.2 nM and the Kd [22] was 19.1 nM. For the same substance, the Kd [23] was 19.5 nM, the Kd [24] was 29.3 nM and the Kd [25] was 31 nM. The Kd [26] was 26.5 nM.
